This is an account of results in article PMC7797036.

Data set [1] concerns APOBEC1 (A1), RNase A untreated. The data set can be described thus: fluorescence anisotropy. For orientation: Fluorescence polarisation rises when a labelled molecule tumbles more slowly, as on binding a larger partner.
Data set [2] deals with APOBEC1 (A1), RNase A treated (UniProt P41238). The data set can be described thus: fluorescence anisotropy.
For the next data set, the system named is APOBEC3H haplotype VII. The data set can be described thus: fluorescence anisotropy.
The next data set concerns the target APOBEC3C (UniProt Q9NRW3 1-190). The data set can be described thus: EMSA. (In general: In EMSA bound probe runs differently from free probe, usually more slowly.)

APOBEC1 (A1), RNase A treated, sequence (P41238 whole entry): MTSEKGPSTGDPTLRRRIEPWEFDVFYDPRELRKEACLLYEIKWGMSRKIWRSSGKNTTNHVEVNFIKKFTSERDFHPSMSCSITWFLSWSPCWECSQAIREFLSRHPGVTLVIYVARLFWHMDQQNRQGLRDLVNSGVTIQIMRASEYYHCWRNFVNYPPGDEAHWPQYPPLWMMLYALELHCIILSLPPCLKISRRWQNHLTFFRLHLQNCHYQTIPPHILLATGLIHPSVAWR
APOBEC3C, sequence (Q9NRW3 whole entry): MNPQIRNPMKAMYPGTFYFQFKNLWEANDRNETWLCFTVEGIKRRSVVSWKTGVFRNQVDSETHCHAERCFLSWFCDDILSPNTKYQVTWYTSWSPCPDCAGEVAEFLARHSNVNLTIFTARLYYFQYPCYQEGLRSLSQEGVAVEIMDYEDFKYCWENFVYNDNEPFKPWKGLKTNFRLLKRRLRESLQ

In the case of “118 nt ssDNA with two 5'TTC motifs 63 nt apart”, the Kd (as a rule, a measure of binding affinity in units of concentration) in data set [1] was found to be 351 nM; in data set [2] it was 343 nM. Further, the binding signal (fold Kd increase vs no RPA) in data set [2] worked out at 9; in the data set on APOBEC3H haplotype VII it was 3.

As for ATTATTATTATTCGAATGGATTTATTTATTTATTTATTTATTT (ssDNA) [43 nt ssDNA], the binding result with APOBEC3C is recorded as “binds”.
